Among the data in US20060073517A1 are fold drop in binding affinity (against H3 methylated on Lys 9 without phospho-Ser 10) values, retold here.

This assay addresses histone H3 methylated on lysine 9 and phosphorylated on serine 10. Nature of the assay: binding graph, method not stated (FIG. 2).

HP1 (heterochromatin protein 1): the fold drop in binding affinity (against H3 methylated on Lys 9 without phospho-Ser 10) was found to be 100 fold.
